Results reported in publication PMC9325545, “Structure and Mutation of the Native Amine Dehydrogenase MATOUAmDH2” (Chembiochem, 2022).

Target: MATOUAmDH2 (native amine dehydrogenase from the Marine Atlas of Tara Oceans Unigenes, MATOUv1)
Test: crystal structure; complex with NADP+; space group P2(1)2(1)2(1); four molecules in the asymmetric unit, two dimers (A/D and B/C)

stoichiometry N: 2
Substance: MATOUAmDH2 (native amine dehydrogenase from the Marine Atlas of Tara Oceans Unigenes, MATOUv1) (enzyme)
